US20260199458A1 (INCENDIA THERAPEUTICS, published 2026)
Several values for one entry are separate records, joined by “and”; a condition that tells them apart may be missing. Identical values can stand only once.

Key:
[1] = molecular target: T1, Mouse DDR1 extracellular domain (mouse, UniProt Q03146 22-415); assay: Biacore, DDR1 extracellular domain
T1 construct: extracellular domain
T1 sequence (looked up): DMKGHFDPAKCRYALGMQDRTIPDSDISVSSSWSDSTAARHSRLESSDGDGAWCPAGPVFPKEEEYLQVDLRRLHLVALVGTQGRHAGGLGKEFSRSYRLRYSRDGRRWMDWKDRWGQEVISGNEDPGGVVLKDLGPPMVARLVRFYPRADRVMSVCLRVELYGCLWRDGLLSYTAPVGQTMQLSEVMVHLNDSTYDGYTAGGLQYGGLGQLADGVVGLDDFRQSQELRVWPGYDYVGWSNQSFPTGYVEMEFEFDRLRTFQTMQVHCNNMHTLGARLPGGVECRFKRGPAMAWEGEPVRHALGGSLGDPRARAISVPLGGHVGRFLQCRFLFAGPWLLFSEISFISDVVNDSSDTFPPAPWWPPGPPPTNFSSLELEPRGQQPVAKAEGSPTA
Protocol: (§1) First, 9H-1 was tested for its affinity to DDR1 protein from human, mouse, rat, and cynomolgus monkey.

[2] = molecular target: T2, Human DDR1 extracellular domain (human, UniProt Q08345 21-417); assay: Biacore, DDR1 extracellular domain
T2 construct: extracellular domain
Protocol: as §1

[3] = molecular target: T3, Cynomolgus monkey DDR1 extracellular domain (cynomolgus monkey, UniProt A0A2K5V739 47-443); assay: Biacore, DDR1 extracellular domain
T3 construct: extracellular domain; also called Cyno DDR1
T3 sequence: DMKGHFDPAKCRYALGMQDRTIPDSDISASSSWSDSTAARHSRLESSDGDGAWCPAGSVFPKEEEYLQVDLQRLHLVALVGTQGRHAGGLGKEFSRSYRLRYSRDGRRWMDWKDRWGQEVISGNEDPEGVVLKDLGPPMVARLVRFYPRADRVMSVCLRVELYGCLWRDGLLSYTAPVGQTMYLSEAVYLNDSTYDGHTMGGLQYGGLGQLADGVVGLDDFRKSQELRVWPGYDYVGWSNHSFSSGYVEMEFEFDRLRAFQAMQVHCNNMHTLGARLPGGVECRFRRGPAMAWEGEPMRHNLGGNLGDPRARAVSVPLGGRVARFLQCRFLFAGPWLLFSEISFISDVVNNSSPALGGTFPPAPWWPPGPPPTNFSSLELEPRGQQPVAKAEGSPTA
Protocol: as §1

[4] = molecular target: T4, Rat DDR1 extracellular domain (rat, UniProt Q63474 22-414); assay: Biacore, DDR1 extracellular domain
T4 construct: extracellular domain
T4 sequence (looked up): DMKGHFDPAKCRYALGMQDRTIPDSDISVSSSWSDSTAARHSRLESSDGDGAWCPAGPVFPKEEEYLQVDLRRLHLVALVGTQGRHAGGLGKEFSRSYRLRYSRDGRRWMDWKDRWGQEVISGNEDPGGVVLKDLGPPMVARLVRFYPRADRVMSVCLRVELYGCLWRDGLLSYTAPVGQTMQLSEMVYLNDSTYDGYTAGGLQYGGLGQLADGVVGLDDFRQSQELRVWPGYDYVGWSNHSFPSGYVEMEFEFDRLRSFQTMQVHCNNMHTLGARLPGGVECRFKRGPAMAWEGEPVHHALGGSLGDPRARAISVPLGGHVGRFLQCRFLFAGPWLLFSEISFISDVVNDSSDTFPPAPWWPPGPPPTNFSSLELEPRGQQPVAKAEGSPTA
Protocol: as §1

[5] = molecular target: T2, Human DDR1 extracellular domain; assay: Biacore, DDR1 extracellular domain; KD in mass units (ng/mL), same fit as the 1.36 nM of r7c2
Protocol: as §1

Kd [1]: 16.9 nM and 2.54 µg/mL | koff [1]: 0.00397 s⁻¹ | kon [1]: 235000 M⁻¹ s⁻¹ | t1/2 [1]: 2.9 min | Kd [2]: 1.36 nM | koff [2]: 0.000181 s⁻¹ | kon [2]: 133000 M⁻¹ s⁻¹ | t1/2 [2]: 64 min | Kd [3]: 1.3 nM and 0.195 µg/mL | koff [3]: 0.00015 s⁻¹ | kon [3]: 116000 M⁻¹ s⁻¹ | t1/2 [3]: 77 min | Kd [4]: 2.28 nM and 0.342 µg/mL | koff [4]: 0.000455 s⁻¹ | kon [4]: 199000 M⁻¹ s⁻¹ | t1/2 [4]: 25.3 min | Kd [5]: 0.204 µg/mL
B1: 9H-1 (humanized DDR1-9, WT IgG1 Fc) (antibody, V domains shown)
VH: QVQLVESGGRVVQPGRSLRLSCTASGFSLNRYYMLWVRQAPGKGLEWIGTISYGDTTYYASWAKGRFTISRDNSKNTLYLQMNSLRAEDTAVYYCARADTGDNGYLGLQLWGQGTLVTVSS
VL: DIQMTQSPSSVSASVGDRVTITCQASQSIGSVLAWYQQKPGKAPKLLISGVFDLASGVPSRFSGSGSGTDFTLTISSLQPEDFATYYCQYIPYGSSPFGGGTKVEIKR
notes: In some embodiments the heavy chain lacks the terminal lysine; also called PRTH-101; humanized DDR1-9 (9H-1)_1 WT IgG1 Fc
